For test [1], the target named is GHRH receptor of human pituitary membrane homogenates (human) (UniProt Q02643). The test is described as follows: radioligand competition, [His1,125I-Tyr10,Nle27]hGHRH(1-32)NH2 (0.2 nM) as competitor, human pituitary membrane homogenates. Background: Displacement assays read how much labelled ligand stays bound in the presence of the test substance.
Test [2] has the same target. As to the kind of experiment: radioligand competition, 125I-JV-1-42 (~0.2 nM) as competitor, human pituitary membrane homogenates.
The target is the same in test [3]. The test is described as above. The source holds these as a separate data set.
For test [4], the target named is T1, GHRH receptor of human pituitary membrane homogenates (human, UniProt Q02643 23-423).
T1 construct: whole, on cells; Native receptor in pituitary membrane homogenates, not intact cells; also called hGH-RH receptor
T1 sequence (looked up): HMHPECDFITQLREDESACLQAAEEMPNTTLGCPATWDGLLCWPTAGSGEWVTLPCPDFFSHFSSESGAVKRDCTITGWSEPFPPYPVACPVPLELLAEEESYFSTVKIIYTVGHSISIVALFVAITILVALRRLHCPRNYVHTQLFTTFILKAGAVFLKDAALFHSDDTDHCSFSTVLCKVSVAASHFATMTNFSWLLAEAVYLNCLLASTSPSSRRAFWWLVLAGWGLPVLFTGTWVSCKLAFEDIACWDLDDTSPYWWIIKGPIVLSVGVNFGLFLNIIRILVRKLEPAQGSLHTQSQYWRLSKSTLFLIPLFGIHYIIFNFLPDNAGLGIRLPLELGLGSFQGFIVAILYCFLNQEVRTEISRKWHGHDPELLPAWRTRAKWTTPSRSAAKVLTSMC
The test is described as above. From the text: (§1) Normal human pituitaries were purchased from the National Hormone and Peptide Program (A. F. Parlow, Los Angeles, County Harbor-UCLA Medical Center, Torrance, Calif.).

Test [5] concerns the target T1, GHRH receptor of human pituitary …. The test is described as above. The protocol:
as §1
The final binding affinities were expressed as IC₅₀ values and were calculated by using the LIGAND PC computerized curve-fitting program of Munson and Rodbard as modified by McPherson.
The source holds these as a separate data set.

Test [6] shares this target. As to the kind of experiment: radioligand competition, [His1,125I-Tyr10,Nle27]hGHRH(1-32)NH2 (0.2 nM) as competitor, human pituitary membrane homogenates. From the text:
Normal human pituitaries were purchased from the National Hormone and Peptide Program (A. F. Parlow, Los Angeles, County Harbor—UCLA Medical Center, Torrance, Calif.).

Square brackets hold non-standard residues; d marks the D form. Ends that are not written are not given here. * marks the point of attachment. Desaminotyrosyl = O=C(CCc1ccc(O)cc1)*; NMeY = CN[C@@H](Cc1ccc(O)cc1)C(=O)O; hArg = N=C(N)NCCCC[C@H](N)C(=O)O; Agmatine = N=C(N)NCCCCN*; Nle = CCCC[C@H](N)C(=O)O; Orn = NCCC[C@H](N)C(=O)O; Abu = CC[C@H](N)C(=O)O; GABA = NCCCC(=O)O

One may read the IC50 as the point on the concentration scale where inhibition reaches its midpoint. Higher therefore signals a need for much substance. In test [1], “[Dat^1, D-Ala^2, Gln^8, Orn^12, Abu^15, Orn^21, Nle^27, Asp^28, Amc^30]hGH-RH(1-30)NH2 (from UniProt P01286 32-61) (peptide)” had an IC50 of 0.08 nM; a Relative affinity (Binding potency) vs GHRH (fold, GHRH(1-29) = 1) of 74; a Relative affinity (Binding potency) vs JI-38 (fold, JI-38 = 1) of 24.4.
In test [2], “[Dat^1, D-Ala^2, Gln^8, Orn^12, Abu^15, Orn^21, Nle^27, Asp^28, Agm^29]hGH-RH(1-29) (from UniProt P01286 32-60) (peptide)” returned an IC50 of 0.52 nM and a Relative affinity (Binding potency) vs JI-38 (fold, JI-38 = 1) of 8.37. For the same molecule, in test [3], the IC50 came to 0.04 nM; the Relative affinity (Binding potency) vs GHRH (fold, GHRH(1-29) = 1) was found to be 102; the Relative affinity (Binding potency) vs JI-38 (fold, JI-38 = 1) was 42.7.
The matching figures for “[Dat^1, D-Ala^2, Fpa5^6, Orn^12, Abu^15, Orn^21, Nle^27, Gab^30]hGH-RH(1-30)NH2 (from UniProt P01286 32-61) (peptide)”: 0.33 nM, 13.2, 0.07 nM, 58 and 24.4.

B1: [Dat^1, D-Ala^2, Orn^12, Abu^15, Orn^21, Nle^27, Gln-Gab^30]hGH-RH(1-30)NH2 (peptide)
peptide: [Desaminotyrosyl][dA]DAIFTNSYR[Orn]VL[Abu]QLSAR[Orn]LLQDI[Nle]SRQ[GABA]-NH2
SMILES: CCCC[C@H](NC(=O)[C@@H](NC(=O)[C@H](CC(=O)O)NC(=O)[C@H](CCC(N)=O)NC(=O)[C@H](CC(C)C)NC(=O)[C@H](CC(C)C)NC(=O)[C@H](CCCN)NC(=O)[C@H](CCCNC(=N)N)NC(=O)[C@H](C)NC(=O)[C@H](CO)NC(=O)[C@H](CC(C)C)NC(=O)[C@H](CCC(N)=O)NC(=O)[C@H](CC)NC(=O)[C@H](CC(C)C)NC(=O)[C@@H](NC(=O)[C@H](CCCN)NC(=O)[C@H](CCCNC(=N)N)NC(=O)[C@H](Cc1ccc(O)cc1)NC(=O)[C@H](CO)NC(=O)[C@H](CC(N)=O)NC(=O)[C@@H](NC(=O)[C@H](Cc1ccccc1)NC(=O)[C@@H](NC(=O)[C@H](C)NC(=O)[C@H](CC(=O)O)NC(=O)[C@@H](C)NC(=O)CCc1ccc(O)cc1)[C@@H](C)CC)[C@@H](C)O)C(C)C)[C@@H](C)CC)C(=O)N[C@@H](CO)C(=O)N[C@@H](CCCNC(=N)N)C(=O)N[C@@H](CCC(N)=O)C(=O)NCCCC(N)=O
notes: T0009 prints Asn^s for Asn^8; also called P29702
B1: in test [4], the IC50 stood at 0.86 nM and the “Relative affinity (Binding potency) vs JI-38” value is 5.06 fold, JI-38 = 1. For the same molecule, in test [5], the IC50 turned out to be 0.05 nM; the “Relative affinity (Binding potency) vs GHRH” value was 81.2 fold, GHRH(1-29) = 1; the “Relative affinity (Binding potency) vs JI-38” value is 34.2 fold, JI-38 = 1.

B2: [Dat^1, D-Ala^2, Orn^12, Abu^15, Orn^21, Nle^27, Asp^28, Har^30]hGH-RH(1-30)NH2 (peptide)
chain: [Desaminotyrosyl][dA]DAIFTNSYR[Orn]VL[Abu]QLSAR[Orn]LLQDI[Nle]DR[hArg]-NH2
SMILES: CCCC[C@H](NC(=O)[C@@H](NC(=O)[C@H](CC(=O)O)NC(=O)[C@H](CCC(N)=O)NC(=O)[C@H](CC(C)C)NC(=O)[C@H](CC(C)C)NC(=O)[C@H](CCCN)NC(=O)[C@H](CCCNC(=N)N)NC(=O)[C@H](C)NC(=O)[C@H](CO)NC(=O)[C@H](CC(C)C)NC(=O)[C@H](CCC(N)=O)NC(=O)[C@H](CC)NC(=O)[C@H](CC(C)C)NC(=O)[C@@H](NC(=O)[C@H](CCCN)NC(=O)[C@H](CCCNC(=N)N)NC(=O)[C@H](Cc1ccc(O)cc1)NC(=O)[C@H](CO)NC(=O)[C@H](CC(N)=O)NC(=O)[C@@H](NC(=O)[C@H](Cc1ccccc1)NC(=O)[C@@H](NC(=O)[C@H](C)NC(=O)[C@H](CC(=O)O)NC(=O)[C@@H](C)NC(=O)CCc1ccc(O)cc1)[C@@H](C)CC)[C@@H](C)O)C(C)C)[C@@H](C)CC)C(=O)N[C@@H](CC(=O)O)C(=O)N[C@@H](CCCNC(=N)N)C(=O)N[C@@H](CCCCNC(=N)N)C(N)=O
Consider B2, for which, in test [6], the IC50 was determined as 0.14 nM; the “Relative affinity (Binding potency) vs GHRH” value was 42.3 fold, GHRH(1-29) = 1; the “Relative affinity (Binding potency) vs JI-38” value is 13.9 fold, JI-38 = 1.

B3: [Dat^1, D-Ala^2, Thr^8, Orn^12, Abu^15, Orn^21, Nle^27, Asp^28, Har^30]hGH-RH(1-30)NH2 (peptide)
chain: [Desaminotyrosyl][dA]DAIFTTSYR[Orn]VL[Abu]QLSAR[Orn]LLQDI[Nle]DR[hArg]-NH2
SMILES: CCCC[C@H](NC(=O)[C@@H](NC(=O)[C@H](CC(=O)O)NC(=O)[C@H](CCC(N)=O)NC(=O)[C@H](CC(C)C)NC(=O)[C@H](CC(C)C)NC(=O)[C@H](CCCN)NC(=O)[C@H](CCCNC(=N)N)NC(=O)[C@H](C)NC(=O)[C@H](CO)NC(=O)[C@H](CC(C)C)NC(=O)[C@H](CCC(N)=O)NC(=O)[C@H](CC)NC(=O)[C@H](CC(C)C)NC(=O)[C@@H](NC(=O)[C@H](CCCN)NC(=O)[C@H](CCCNC(=N)N)NC(=O)[C@H](Cc1ccc(O)cc1)NC(=O)[C@H](CO)NC(=O)[C@@H](NC(=O)[C@@H](NC(=O)[C@H](Cc1ccccc1)NC(=O)[C@@H](NC(=O)[C@H](C)NC(=O)[C@H](CC(=O)O)NC(=O)[C@@H](C)NC(=O)CCc1ccc(O)cc1)[C@@H](C)CC)[C@@H](C)O)[C@@H](C)O)C(C)C)[C@@H](C)CC)C(=O)N[C@@H](CC(=O)O)C(=O)N[C@@H](CCCNC(=N)N)C(=O)N[C@@H](CCCCNC(=N)N)C(N)=O
Regarding B3, in test [6], the IC50 was 0.07 nM; the “Relative affinity (Binding potency) vs GHRH” value was 84.5 fold, GHRH(1-29) = 1; the “Relative affinity (Binding potency) vs JI-38” value was 27.8 fold, JI-38 = 1.

B4: [Dat^1, D-Ala^2, Ala^8, Orn^12, Abu^15, Orn^21, Nle^27, Asp^28, Har^30]hGH-RH(1-30)NH2 (peptide)
chain: [Desaminotyrosyl][dA]DAIFTASYR[Orn]VL[Abu]QLSAR[Orn]LLQDI[Nle]DR[hArg]-NH2
SMILES: CCCC[C@H](NC(=O)[C@@H](NC(=O)[C@H](CC(=O)O)NC(=O)[C@H](CCC(N)=O)NC(=O)[C@H](CC(C)C)NC(=O)[C@H](CC(C)C)NC(=O)[C@H](CCCN)NC(=O)[C@H](CCCNC(=N)N)NC(=O)[C@H](C)NC(=O)[C@H](CO)NC(=O)[C@H](CC(C)C)NC(=O)[C@H](CCC(N)=O)NC(=O)[C@H](CC)NC(=O)[C@H](CC(C)C)NC(=O)[C@@H](NC(=O)[C@H](CCCN)NC(=O)[C@H](CCCNC(=N)N)NC(=O)[C@H](Cc1ccc(O)cc1)NC(=O)[C@H](CO)NC(=O)[C@H](C)NC(=O)[C@@H](NC(=O)[C@H](Cc1ccccc1)NC(=O)[C@@H](NC(=O)[C@H](C)NC(=O)[C@H](CC(=O)O)NC(=O)[C@@H](C)NC(=O)CCc1ccc(O)cc1)[C@@H](C)CC)[C@@H](C)O)C(C)C)[C@@H](C)CC)C(=O)N[C@@H](CC(=O)O)C(=O)N[C@@H](CCCNC(=N)N)C(=O)N[C@@H](CCCCNC(=N)N)C(N)=O
Turning to B4, in test [6], the IC50 is 0.04 nM; the “Relative affinity (Binding potency) vs GHRH” value is 148 fold, GHRH(1-29) = 1; the “Relative affinity (Binding potency) vs JI-38” value was 48.7 fold, JI-38 = 1.
Consider [NMeY]ADAIFTQSYR[Orn]VL[Abu]QLSAR[Orn]LLQDI[Nle]D[Agmatine] (also called P20356) [[N-Me-Tyr^1, Gln^8, Orn^12, Abu^15, Orn^21, Nle^27, Asp^28, Agm^29]hGH-RH(1-29)], for which, in test [4], the IC50 came to 0.27 nM and the “Relative affinity (Binding potency) vs JI-38” value was 16.1 fold, JI-38 = 1. In addition, in test [5], the IC50 was determined as 0.01 nM; the “Relative affinity (Binding potency) vs GHRH” value was 406 fold, GHRH(1-29) = 1; the “Relative affinity (Binding potency) vs JI-38” value was 171 fold, JI-38 = 1.

For the origin of these results see patent publication US20140058068A1 (UNIVERSITY OF MIAMI, published 2014).
